Results from a protein production outcome set (Wang et al. 2014).

Assay: label from the status in PepcDB records

| Sequence | protein production |
| --- | --- |
| MCFSFIMPPAMADILDIWAVDSQIASDGSIPVDFLLPTGIYIQLEVPREATISYIKQMLWKQVHNYPMFNLLMDIDSYMFACVNQTAVYEELEDETRRLCDVRPFLPVLKLVTRSCDPGEKLDSKIGVLIGKGLHEFDSLKDPEVNEFRRKMRKFSEEKILSLVGLSWMDWLKQTYPPEHEPSIPENLEDKLYGGKLIVAVHFENCQDVFSFQVSPNMNPIKVNELAIQKRLTIHGKEDEVSPYDYVLQVSGRVEYVFGDHPLIQFQYIRNCVMNRALPHFILVECCKIKKMYEQEMIAIEAAINRNSSNLPLPLPPKKTRIISHVWENNNPFQIVLVKGNKLNTEETVKVHVRAGLFHGTELLCKTIVSSEVSGKNDHIWNEPLEFDINICDLPRMARLCFAVYAVLDKVKTKKSTKTINPSKYQTIRKAGKVHYPVAWVNTMVFDFKGQLRTGDIILHSWSSFPDELEEMLNPMGTVQTNPYTENATALHVKFPENKKQPYYYPPFDKIIEKAAEIASSDSANVSSRGGKKFLPVLKEILDRDPLSQLCENEMDLIWTLRQDCREIFPQSLPKLLLSIKWNKLEDVAQLQALLQIWPKLPPREALELLDFNYPDQYVREYAVGCLRQMSDEELSQYLLQLVQVLKYEPFLDCALSRFLLERALGNRRIGQFLFWHLRSEVHIPAVSVQFGVILEAYCRGSVGHMKVLSKQVEALNKLKTLNSLIKLNAVKLNRAKGKEAMHTCLKQSAYREALSDLQSPLNPCVILSELYVEKCKYMDSKMKPLWLVYNNKVFGEDSVGVIFKNGDDLRQDMLTLQMLRLMDLLWKEAGLDLRMLPYGCLATGDRSGLIEVVSTSETIADIQLNSSNVAAAAAFNKDALLNWLKEYNSGDDLDRAIEEFTLSCAGYCVASYVLGIGDRHSDNIMVKKTGQLFHIDFGHILGNFKSKFGIKRERVPFILTYDFIHVIQQGKTGNTEKFGRFRQCCEDAYLILRRHGNLFITLFALMLTAGLPELTSVKDIQYLKDSLALGKSEEEALKQFKQKFDEALRESWTTKVNWMAHTVRKDYRS | failed |
| MCLPIHVKYDWFCRLCKTGRTLRPTSLQRGRAMASLTLRHLAGNTWLIPAPAAIGVYVRNGRAVLIDSGNDEEAGRQILKLLNGQGWTLDLIVNTHSNADHIGGNAFLQKKTGCRVAATVPEAAFIANPILEPSFLYGGYPVKALRNKFLMAKPSTVTDIIEAIGPILDTGLEAVPLAGHFFGMIGIRTPDGVLFAADSLFPETILAKYPIFYLYDIREHLASLQRLRELEAAIYVPSHGAPSPEILPLIEANEQRVRQTVSFVESCCTDAPASFETVLERVCGEYGIVLDPNQYVLVGNTIRSILAFLSEEGRLAMIFDGGRLLWGTAADQREA | failed |
| MCNAKDIYTAGWALVVMAGLVSLAIQVYLGYFRLDDMVKHLSRCRVIAIRMPLLGKDPLSRFFMLLCIGALFAMPHLFLRNGGLNVKDYRKFPLGLKWLINLFQFAALVAVIAFLVLWWVSRHL | failed |
| MCPAVVPDDPHALTAPSPWVVRWAAPLPAGARVLDVACGSGRHVRWLAARGLRVTGIDRDADALSGLSEAADTLIADIEDGLWPLPAEAVFDAVVVTNYLYRPLWPRLLACVAPGGRLIYETFAVGNETVGKPSNPAFLLAPGELLEAVRGQLRVIGYEDGFIAAPREAYVQRLCAVRESAGAQARRYAL | failed |
| MCPEFQRKAAGAPRMGAMLARCVLTAALALQAAAAARAVEIEIGVASRGVVDGLEFVQFSADERTMATTHWGNVVHLWDLKTLRVRSSVSVANRDFDFDLSPDGRALAVWNEEGKGEIELYDTDNGQPARALPAPRLPQGESRRGRSLVYRDDGTLEFVSHGWIGGHARKAYLLAVPAGQPRAAETPLPALVNSVAFRKSAVMDQGRLLLAGVDGADDELAIMDIASGRMLAREPGFRIASYAADARRAVFVEADGKQRILAFDFSSRSLSTLPRWTGSGKFQPYRFVAGTRFLVLAPDEPDASTRRAAPGIYDLQTRRLHRLPPDADPGSIDVWGATASYVLCNPDHTACQAEVADLAISRKLGTFAVQPSADFRTWISPSGSMVVVGGADDGTMMVWSVKEQRVIGPNLEHHHHHH | failed |
| MCRNNREDIFNLVPINIISSKFHVKVIGGGKAATIKVKGLLEKGCYVHILSKEFSKEILDIENKNLKLEKGNYYKEFIKDAHLIIIAVNESSLVYKISKDCEKEYKLYLNAANYKEGMVAIPYSRCYENLGFSISSKLGSPRITRAIGEEVSNIIKENDIYSIKVAKIREKAKKEELKDNIIEIISSKEFKNAILEKREYEYLKNLLGEELANSLTLGLK | failed |
| MCSKQSANQQISYRQTAEATLDKGMDNQPEAPYWFPKQLLKWQLSKDKAAKYNTASVPLAKRIDKWQLPTVNKTQDPKMKVVALSIMNSSTSGNAPRGINTFDANVFSNWQYIDQLVYWGGSAGEGLIVPPTADVIDSAHKNGVPVLGTVFFPQVVSGGKLKWLNDFLKQDADGHFPMADKLVAVAKAYGFDGWFINQETDPEVKSFDSASTGKTATSSTSNGLSKKHAQLMQQLIKEYKQKAGSKLDLMWYDSMTKDGKMDWQNALTKENQSYLVDANMKPVADSMFLNFWWTKKRLASQELLKKSHERAEKLGISPYNLFAGIDVQADGTATPVRWNLFANKQHVPYTSLGLYAPDWTHASSDTVDEFQAKEGALWVNDQNDPSRSIPSTTSTHWPGVSTYAVEQSAITKQPFVTNFSLGNGYNYFIKLEHHHHHH | failed |
| MCSSDSLQLHNVFVYGSFQDPDVINVMLDRTPEIVSATLPGFQRFRLKGRLYPCIVPSEKGEVHGKVLMGVTSDELENLDAVEGNEYERVTVGIVREDNSEKMAVKTYMWINKADPDMFGEWNFEEWKRLHKKKFIETFKKIMECKKKPQGQGNDDISHVLREDQ | not failed |
| MCTIFKVNGKIHIKELISSIVIAEGVGALSGFLSMSNVKNYSNLKKPFFSPPGFIFPIVWVILYFLMAVAAYRIWVIGKEESKDVKKALVLYAVQLLFNFLWSIIFFKFNCYGAAFIELLILLFFILCATFQFHKHDKVAAFLMIPYILWVSFAGILNFAIWFLNRNSST | failed |
| MDAADCYLEGNADAVEFCPHESYANLLAASTYTLQEGDCPSRSGSVYLFDVGDVEDVGLNLIQKIDTAGVFDIRWSRGGDGGDVALAQADADGCLIVYKIDETESKGTLREVSGKRISSSMCLCLDWDPSSTSIVVGLSDGSASVVSFTDSNLETVQEWKGHDFELWTASFDLNNPNLVYTGSDDCKFSCWDIRDSPADNRVFQNSKVHTMGVCCISSNPSDPYSIFTGSYDETLRVWDTRSVSRPLNETSVSLGGGVWRIKHHPSLSGVVLAACMHNGFALAKVSDGKGEVLESYNKHHSLAYGADWYRGKDQKQSVVATCSFYDRLLRVWMPITDFSTRCS | failed |
| MDAETAESLKLLKNISLYTETYGCTYNAGDTEKLMEIARNQGCVPASSAEEADAILINTCVVIDKTEQHMYERLDLYAGKLLFVTGCLPPVAADVLRTRYPKIHIIDPALIHSCYMEVGTAHVGTNAVLQIARGCNGHCTYCITRLARGKLVSFSAEDIVRQAKSIVEAGATEIQLTAQDTSSWGLDRNDGLRLPDLLRQLCAIPGNFMIRIGMANPDTLLPILDDFLDALKDPKIFLFLHIPVQSGSDSVLRLMGRRYTSAQYEEICQRARKAFPEIRISTDYIAGFSGETDEDAAKSAEQIRRTRPGKVNITRFSVRPNTPAAKMKKIPEPIKKQRSRELTDAANEVYDANNEALIGHIMTAVVTEVVKAGSVTARDRTYQNIVIMENLEIGTEITVKITGHRRHYLIGERIVP | failed |
| MDALIMAGGKGTRLKENVEKPILNICEKPMIDYVIDSLLNSKIEKIYVAVSIHTPKTKEYLEKKYRLDRNYNPKIDIICTSGTNYVDDLNECMEFFKEPFLILSSDIPTIKPKVINSIIQDYLFVNNSCNRIESFCVVTKDDDYVGTPSINMGGYIPLGINILTPKHGEQTEILHVIKDIIVNVNTLSDKKLVETLINKVVELEHHHHHH | not failed |
| MDALLILGGLLLMVAGYIWVIVLAFGTGLLWGYGSLFPPVALAYIGVHWRTARKGVGLAALGCIPLVVGLALLASHDAARLEAILSLRWLKPEARPPAELAIALSGEFNGKPFAPQSGELIGGVLSLRQGHDFYAQRELQIRLPAQPLGALRLDVLPEDGGALPEVELSWLQPDQDLPEARRLLRGYTLHLDLRPKAPNRLEGEFHLSLPSDYRTTLSGHVELYTDRLRYRHGKVDLGYDSDDTLALVLRDYLQRRFASRDVSLVRAPSWRAASHARPLRIEALVAGQAQVLELTLEKNARREWTVRGDAFPALPAEPATVAAAAPPEPQALPAPGNATLDLELVQVEPQRYSQRLVKATTVRGRIAEGRFTGLDSEGRLVIRREMPGAGEASYLLRPAEIARLELLER | failed |
| MDAREWAMLIALSLLWGGSFFFIGVAVKELPPVTIVTLRVSLAAVALLVVCRIMGLRLPREWAVWRAFFGMGLLNNIIPFCLIVWGQTQIASGLASILNATTPLFTVIVAHFLTADEKMTGNKLAGVLIGFVGVATMIGPAAFGGSSGLWGQIAILGAAISYSFAGIFGRRFKAMGVPPLMTATGQISSSTLMLIPAALLIDKPWTLAMPGLGTWGALIGIALLSTALAYLIFFRILASAGATNLALVTFLIPVSAILLGSLILGEQLEIKHFAGMAMIAAGLAAIDGRLPVKLRSLLRNAPA | failed |
| MDARFLYPLESCKIIHLLRHGQALHNVEAEKDRNALLSPHLFDAPLTDHGHQQVENLRERVVSSGLLKRVELVVTSPLFRTMQTAVGVFGNEYKQSSMTSSPPILALEVARDRNGVRPPDMRRNVSEYQTLFPTIDFSQIESEEDNLWRPDVRESEEEILARGLEFMKWLWKRPEKEVAVVSHGIVLQHMLYVFANDCDLSIRHELCKRFANCEIRTVVIVDKGMASSTEN | failed |
| MDATISVVCYKSKTLSNGEHPLMLRISKDGKKKYQSLGISVNPKFWDFQKNKPKPKCPNLEYLQKIILDKKLELQKKMLEIKSDQKEYSAATLIEANEKLQVAKNVDCFYKEIIAQCEINNKCGNRLVYLNSYNSLKRFTNGKLEIPFNTINVAWLEKYEKWLRSNGNKETTISLMFRTLRSTYNKAIKERCAHLSDYPFQEYKISKFDTSTQKRAIAKTDMLKFTETSQPIGQKKYVELSKDIFIFSYLCGGINFTDIANLTQENIVNGRLHYIRQKTGKLIKIGIPQEAMQIIKKYTDESNGYLFPILNVKVHKTALQKQNRIHKIRGKVNDILKTLGKRLGIEANITTYVARHSFASVLKKSGVNIALISEALGHSDLATTQIYLDSFDNEQVDEAMKNLL | failed |
| MDDIFTQCREGNAVAVRLWLDNTENDLNQGDDHGFSPLHWACREGRSAVVEMLIMRGARINVMNRGDDTPLHLAASHGHRDIVQKLLQYKADINAVNEHGNVPLHYACFWGQDQVAEDLVANGALVSICNKYGEMPVDKAKAPLRELLRERAEKMGQNLNRIPYKDTFWKGTTRTRPRNGTLNKHSGIDFKQLNFLTKLNENHSGELWKGRWQGNDIVVKVLKVRDWSTRKSRDFNEECPRLRIFSHPNVLPVLGACQSPPAPHPTLITHWMPYGSLYNVLHEGTNFVVDQSQAVKFALDMARGMAFLHTLEPLIPRHALNSRSVMIDEDMTARISMADVKFSFQCPGRMYAPAWVAPEALQKKPEDTNRRSADMWSFAVLLWELVTREVPFADLSNMEIGMKVALEGLRPTIPPGISPHVCKLMKICMNEDPAKRPKFDMIVPILEKMQDK | failed |
| MDDPFASLEPLAVAPSGPEGVRAQFDQMEDIPPPRPRQPPPAQEDPVEIEVTEDGVARAFTEKYGGTLRFDHDAGRWYHWQEDHWQADTTSRAFEYCRRLARLASEGAKHSLLSTARKASFAGGVERLARADPAHAVTQEAWDRDPWLVACPGETVDLRTGRSAVPRPEDGITRRVAVAPAAQETCPTWWQFLEDATGADSSVMRFLQQWAGYSLTGITREHTLVFLYGDGGNGKSVFINTLTGLLGDYAATAGMETFTASKSDRHPTDLAMLAGARLVAASETEEGRAWAESRIKQMTGGDRITARFMRRDFFTYTPQFKLTLVGNHRPALANVKPVEPWALVVPAELETVAQQVLAEIAAAAVSDVNPFSGTLELIVEPGLTSATGWYLIGNPALHDGLAHAFLDGQSAPRIETRAGWNTLGMEFRLTWAVDAKFIGTASWFRNPGASGCPRCRPRNAQRQGVALLCLARRSEVLDRLEHHHHHH | failed |
